From article PMC9976893, “Dynamic states of eIF6 and SDS variants modulate interactions with uL14 of the 60S ribosomal subunit” (Nucleic Acids Research, 2023)

target: recombinant full-length human eIF6 (human, UniProt P56537 1-245); test: SPR; eIF6 immobilised on a CM5 chip by NHS/EDC chemistry (4913 RU); peptides injected at 0-500 μM (1:2 dilutions) in 20 mM HEPES pH 7.4, 150 mM NaCl, 0.01% BSA, 0.002% Tween 20; 25 μl/min; BIAcore S200; profiles did not obey a 1:1 model; details: both partners purified

| percent reduction of binding against the uL14-WT peptide at 0.5 mM | Binder |
| --- | --- |
| ~50% | VAKECADLWPRIASNAGAIA (also called site-specific mutant peptide S138) [uL14 peptide (aa 121-140) with S138 to A substitution] |
| ~50% | VAKECAALWPRIASNAGSIA (also called site-specific mutant peptide D127) [uL14 peptide (aa 121-140) with alanine substitution of D127] |
| ~50% | VAKECADLWPAIASNAGSIA (also called site-specific mutant peptide R131) [uL14 peptide (aa 121-140) with alanine substitution of R131] |
| ~50% | VAKECADLWPRIASAAGSIA (also called site-specific mutant peptide N135) [uL14 peptide (aa 121-140) with alanine substitution of N135] |
